{
  "source": "patent US20200207869A1",
  "binders": {"B1": {"name": "FVII-KB13-bv (protein)", "chain": "AGGVAKASGGETRDMPWKPGPHRVFVTQEEAHGVLHRRRRANAFLEELRPGSLERECKEEQCSFEEAREIFKDAERTKLFWISYSDGDQCASSPCQNGGSCKDQLQSYICFCLPAFEGRNCETHKDDQLICVNENGGCEQYCSDHTGTKRSCRCHEGYSLLADGVSCTPTVEYPCGKIPILEKRNASKPQGRIVGGKVCPKGECPQVLLLVNGAQLCGGTLINTIWVVSAAHCFDKIKNWRNLIAVLGEHDLSEHDGDEQSRRVAQVIIPSTYVPGTTNHDIALLRLHQPVVLTDHVVPLCLPERTFSERTLAFVRFSLVSGWGQLLDRGATALELMVLNVPRLMTQDCLQQSRKVGDSPNITEYMFCAGYSDGSKDSCKGDSGGPHATHYRGTWYLTGIVSWGQGCATVGHFGVYTRVSQYIEWLQKLMRSEPRPGVLLRAPFPLTPRGVRLGGGSGGGSGGGSGGGSQVQLVQSGGGLVQAGDSLRLSCAASGRTFIRYAMAWFRQAPGKEREFVAAIPQSGGRSYYADSVKGRFTISRDNAKNTVYLQMNSLKPEDTAVYSCAATSTYYGRSAYSSHSGGYDYWGQGTQVTVSSGGGSGGGSGGGSGGGSQVQLVQSGGGLVQAGDSLRLSCAASGRTFIRYAMAWFRQAPGKEREFVAAIPQSGGRSYYADSVKGRFTISRDNAKNTVYLQMNSLKPEDTAVYSCAATSTYYGRSAYSSHSGGYDYWGQGTQVTVSS"}},
  "target": "VWF in the plasma of the mice (endogenous murine VWF) (murine) (UniProt Q8CIZ8)",
  "experiment": "sandwich ELISA of mouse plasma, anti-FVII capture, anti-VWF detection, n=4 mice",
  "data": [
    {"binder": "B1", "values": [
      {"measurement": "OD450 nm", "value": 0.684, "unit": "OD450 nm"}
    ]}
  ]
}
